From patent publication US20100041597A1 (published 2010)

T1: PKC-ζ (purified isoform) (Homo sapiens (Human), UniProt Q05513 1-592)
T1 construct: also called PKC-zeta; PKCzeta
T1 sequence: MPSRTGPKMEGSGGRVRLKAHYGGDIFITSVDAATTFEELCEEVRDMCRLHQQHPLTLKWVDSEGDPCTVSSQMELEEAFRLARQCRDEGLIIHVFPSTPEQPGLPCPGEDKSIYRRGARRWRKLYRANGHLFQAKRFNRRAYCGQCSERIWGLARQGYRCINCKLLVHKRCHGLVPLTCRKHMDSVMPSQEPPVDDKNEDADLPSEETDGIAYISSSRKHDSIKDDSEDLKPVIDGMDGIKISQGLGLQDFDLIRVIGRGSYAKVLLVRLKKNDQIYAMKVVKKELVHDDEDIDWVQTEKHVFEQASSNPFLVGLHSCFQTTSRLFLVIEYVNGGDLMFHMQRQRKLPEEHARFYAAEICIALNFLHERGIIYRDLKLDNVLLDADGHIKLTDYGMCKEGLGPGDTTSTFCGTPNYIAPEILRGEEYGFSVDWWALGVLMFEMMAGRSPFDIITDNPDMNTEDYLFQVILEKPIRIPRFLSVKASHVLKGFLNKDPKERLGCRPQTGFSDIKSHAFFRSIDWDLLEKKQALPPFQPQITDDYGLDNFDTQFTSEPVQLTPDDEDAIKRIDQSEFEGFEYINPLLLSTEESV

B1: PRE 12 (peptide)
peptide: Ac-KDAQNLI-NH2
notes: Synthetic peptide; also called peptide PRE 12; Ac-KDAQNLI-NH2
B2: PRE 13 (peptide)
peptide: Ac-RDAQNLI-NH2
notes: Synthetic peptide; also called peptide PRE 13; Ac-RDAQNLI-NH2
B3: PRE 7 (peptide)
peptide: Ac-ISIGILQNADK-NH2
notes: Synthetic peptide (retro form of PRE 4); also called peptide PRE 7
B4: PRE 4 (peptide)
peptide: Ac-KDAQNLIGISI-NH2
notes: Synthetic peptide; also called peptide PRE 4
B5: PRE 11 (peptide)
peptide: Ac-RDAQNLIGISI-NH2
notes: Synthetic peptide; also called peptide PRE 11
B6: PRE 6 (peptide)
peptide: Ac-KDANQLIGISI-NH2
notes: Synthetic peptide; also called peptide PRE 6
B7: PRE 3 (peptide)
peptide: Ac-AKGIQEVKGGDAQNLIGISI-NH2
notes: Synthetic peptide; also called peptide PRE 3

Biological target: T2, PKC-δ (purified isoform) (Homo sapiens (Human), UniProt Q05655 1-676)
T2 construct: also called PKC-delta; PKCdelta
Experiment: competitive ELISA on purified PKC-δ vs anti-PKC-δ Ab; PRE 50 µM
Description: (§1) Greiner 96 well ELISA plates were coated with the appropriate PKC isoform diluted in PBSN (PBS with Calcium/Magnesium+0.05% Sodium azide w/w). 50 μL/well at 250 ng/mL was used. Control wells contained PBSN only. Plates were incubated overnight at 4° C.
(§2) The plates were washed 3 times with 200 μL of dH₂O per well, then 100 μL of blocking solution was added per well and the plate incubated for 1 h at 37° C. The washing steps with dH₂O were repeated and 50 μL of the appropriate PRE solution (PRE stock solution [20 mM in DMSO] diluted in PBSN) was added and the plate incubated for 1 h at room temperature.
(§3) 50 μL of 1:1000 dilution of Alkaline Phosphatase (AP) conjugated antibody (anti-rabbit for all except zeta, which was anti-goat) was then added and the plate incubated for 1 h at room temperature. Washing with dH₂O was then repeated. Finally, 100 μL of pNPP solution in pNPP buffer (2 mM MgCl₂, 100 mM Sodium bicarbonate in water, pH 9.8) was added to all wells and incubated for 8 minutes for α, βI, βII ε, and ζ, or for 15-20 mins for […] (until sufficient coloration is observed). The reaction was stopped by addition of Stop solution (2N NaOH) and the absorbance at 405 nm was read on a Galaxy Plate reader.

T2 sequence (Q05655 whole entry, stated change not applied, canonical isoform): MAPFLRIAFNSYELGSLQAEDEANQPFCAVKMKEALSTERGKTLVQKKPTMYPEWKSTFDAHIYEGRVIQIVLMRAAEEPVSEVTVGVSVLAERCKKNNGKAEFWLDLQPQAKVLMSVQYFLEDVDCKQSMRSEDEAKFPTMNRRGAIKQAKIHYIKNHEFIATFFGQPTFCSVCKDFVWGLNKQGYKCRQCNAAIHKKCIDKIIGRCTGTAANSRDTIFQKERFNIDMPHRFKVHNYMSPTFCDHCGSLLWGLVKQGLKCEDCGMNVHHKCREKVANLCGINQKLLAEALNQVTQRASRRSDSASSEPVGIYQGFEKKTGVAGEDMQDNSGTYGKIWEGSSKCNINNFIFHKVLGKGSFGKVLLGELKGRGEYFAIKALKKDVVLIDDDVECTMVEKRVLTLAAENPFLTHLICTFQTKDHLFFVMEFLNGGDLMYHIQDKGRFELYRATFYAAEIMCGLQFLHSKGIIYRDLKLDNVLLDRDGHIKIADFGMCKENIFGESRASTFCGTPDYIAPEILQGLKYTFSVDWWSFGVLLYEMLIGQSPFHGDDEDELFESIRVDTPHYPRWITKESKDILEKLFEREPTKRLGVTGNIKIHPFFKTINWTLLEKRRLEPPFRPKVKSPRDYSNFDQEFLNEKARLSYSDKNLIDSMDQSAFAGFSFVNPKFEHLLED

| binding capacity (%) | Binder |
| --- | --- |
| 2.26% | B1 |
| 0% | B2 |
| 3.06% | B3 |
| 29.2% | B4 |
| 34.1% | B5 |
| 17.5% | B6 |
| 48.3% | B7 |

Biological target: T1, PKC-ζ (purified isoform)
Experiment: competitive ELISA on purified PKC-ζ vs anti-PKC-ζ Ab; PRE 50 µM
Description: as §1, §2, §3

| binding capacity (%) | Binder |
| --- | --- |
| 0% | B2 |
| 1.83% | B3 |
| 0% | B4 |
| 0% | B5 |
| 0% | B6 |
| 14% | B7 |

Biological target: T3, PKC-α (purified isoform) (Homo sapiens (Human), UniProt P17252 2-672)
T3 construct: also called PKC-alpha; PKCalpha
Experiment: competitive ELISA on purified PKC-α vs anti-PKC-α Ab; PRE 200 µM
Description: as §1
After incubation, 5 μL of 1.1:400 anti-PKC (isoform specific antibody) was added per well (to provide a final concentration of 1:4000). For PKC-epsilon, 1.1:800 dilution was used and for PKC-zeta a 1.1:100 dilution was used due to high and low binding affinity, respectively. The plates were then incubated 1 h at room temperature, followed by washing with dH₂O as described above.
as §3

| binding capacity (%) | Binder |
| --- | --- |
| 0% | B1 |
| 6.59% | B3 |
| 22.8% | B4 |
| 13.3% | B5 |
| 22.6% | B7 |

Biological target: T2, PKC-δ (purified isoform)
Experiment: competitive ELISA on purified PKC-δ vs anti-PKC-δ Ab; PRE 100 µM
Description: as §1, §2, §3

| binding capacity (%) | Binder |
| --- | --- |
| 1.02% | B1 |
| 0.79% | B2 |
| 0% | B3 |
| 30.7% | B4 |
| 21.5% | B5 |
| 13.2% | B6 |
| 56% | B7 |

Biological target: T2, PKC-δ (purified isoform)
Experiment: competitive ELISA on purified PKC-δ vs anti-PKC-δ Ab; PRE 200 µM
Description: as §1, §2, §3

| binding capacity (%) | Binder |
| --- | --- |
| 23.5% | B1 |
| 17.9% | B2 |
| 0% | B3 |
| 17.3% | B4 |
| 18.7% | B5 |
| 14% | B6 |
| 57% | B7 |

Biological target: T1, PKC-ζ (purified isoform)
Experiment: competitive ELISA on purified PKC-ζ vs anti-PKC-ζ Ab; PRE 100 µM
Description: as §1, §2, §3

| binding capacity (%) | Binder |
| --- | --- |
| 0% | B2 |
| 0% | B3 |
| 0% | B4 |
| 0% | B5 |
| 0% | B6 |
| 23.9% | B7 |

Biological target: T1, PKC-ζ (purified isoform)
Experiment: competitive ELISA on purified PKC-ζ vs anti-PKC-ζ Ab; PRE 200 µM
Description: as §1, §2, §3

| binding capacity (%) | Binder |
| --- | --- |
| 4.29% | B2 |
| 1.54% | B3 |
| 5.85% | B4 |
| 0% | B5 |
| 0% | B6 |
| 29.1% | B7 |

Biological target: T4, PKC-βI (purified isoform) (Homo sapiens (Human), UniProt P05771 2-671)
T4 construct: also called PKC-beta I
Experiment: competitive ELISA on purified PKC-βI vs anti-PKC-βI Ab; PRE 50 µM
Description: as §1, §2, §3

T4 sequence (P05771 2-671 limits assumed): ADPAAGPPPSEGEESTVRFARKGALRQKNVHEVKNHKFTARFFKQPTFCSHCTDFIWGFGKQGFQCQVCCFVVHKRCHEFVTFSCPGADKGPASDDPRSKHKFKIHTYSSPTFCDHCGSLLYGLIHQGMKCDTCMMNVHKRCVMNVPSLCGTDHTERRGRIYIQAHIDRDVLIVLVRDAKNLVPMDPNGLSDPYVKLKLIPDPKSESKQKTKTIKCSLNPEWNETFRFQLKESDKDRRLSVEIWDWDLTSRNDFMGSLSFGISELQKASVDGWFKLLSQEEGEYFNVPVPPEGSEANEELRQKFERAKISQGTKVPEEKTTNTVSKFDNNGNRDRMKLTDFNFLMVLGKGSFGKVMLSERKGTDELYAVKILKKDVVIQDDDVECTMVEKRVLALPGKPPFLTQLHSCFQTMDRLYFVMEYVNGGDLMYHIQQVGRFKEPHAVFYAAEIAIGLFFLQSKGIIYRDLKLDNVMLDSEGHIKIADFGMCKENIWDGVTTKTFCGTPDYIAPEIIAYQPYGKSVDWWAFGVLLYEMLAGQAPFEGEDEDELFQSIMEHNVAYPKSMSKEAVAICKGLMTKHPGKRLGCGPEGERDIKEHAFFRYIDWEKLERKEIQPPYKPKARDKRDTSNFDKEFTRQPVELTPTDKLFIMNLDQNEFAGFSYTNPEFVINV

| binding capacity (%) | Binder |
| --- | --- |
| 0.79% | B1 |
| 0% | B2 |
| 2.1% | B3 |
| 6.02% | B4 |
| 0% | B6 |
| 26% | B7 |

Biological target: T4, PKC-βI (purified isoform)
Experiment: competitive ELISA on purified PKC-βI vs anti-PKC-βI Ab; PRE 100 µM
Description: as §1, §2, §3

| binding capacity (%) | Binder |
| --- | --- |
| 0% | B1 |
| 0% | B2 |
| 0% | B3 |
| 15.7% | B4 |
| 7.93% | B6 |
| 22.5% | B7 |

Biological target: T4, PKC-βI (purified isoform)
Experiment: competitive ELISA on purified PKC-βI vs anti-PKC-βI Ab; PRE 200 µM
Description: as §1, §2, §3

| binding capacity (%) | Binder |
| --- | --- |
| 0% | B1 |
| 0% | B2 |
| 0% | B3 |
| 7.46% | B4 |
| 6.14% | B6 |
| 23% | B7 |

Biological target: T5, PKC-βII (purified isoform) (Homo sapiens (Human), UniProt P05771 2-621)
T5 construct: also called PKC-beta II
Experiment: competitive ELISA on purified PKC-βII vs anti-PKC-βII Ab; PRE 100 µM
Description: as §1, §2, §3

T5 sequence (P05771 other isoform, or with tags, fused parts or gaps limits assumed): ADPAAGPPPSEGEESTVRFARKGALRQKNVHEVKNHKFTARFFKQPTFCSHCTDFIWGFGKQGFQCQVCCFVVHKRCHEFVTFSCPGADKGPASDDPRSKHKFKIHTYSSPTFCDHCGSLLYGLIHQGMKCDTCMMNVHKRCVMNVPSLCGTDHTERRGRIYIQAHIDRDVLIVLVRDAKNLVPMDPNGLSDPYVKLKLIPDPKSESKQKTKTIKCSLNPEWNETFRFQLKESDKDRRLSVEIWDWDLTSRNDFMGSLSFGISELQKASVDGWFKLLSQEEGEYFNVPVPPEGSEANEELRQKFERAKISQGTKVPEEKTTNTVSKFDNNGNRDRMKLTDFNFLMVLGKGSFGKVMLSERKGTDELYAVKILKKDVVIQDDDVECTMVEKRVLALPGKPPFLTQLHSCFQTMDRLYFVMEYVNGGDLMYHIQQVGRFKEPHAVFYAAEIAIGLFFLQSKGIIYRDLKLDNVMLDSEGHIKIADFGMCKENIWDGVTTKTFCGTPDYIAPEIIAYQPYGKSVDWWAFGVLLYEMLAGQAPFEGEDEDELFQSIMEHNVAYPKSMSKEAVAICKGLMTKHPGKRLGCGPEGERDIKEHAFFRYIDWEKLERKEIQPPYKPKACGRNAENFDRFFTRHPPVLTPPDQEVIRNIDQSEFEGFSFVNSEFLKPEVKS

| binding capacity (%) | Binder |
| --- | --- |
| 1.63% | B2 |
| 13.5% | B4 |
| 0% | B6 |

Biological target: T6, PKC-α (endogenous, human cell lysates and cells) (human, UniProt P17252 2-672)
T6 construct: Endogenous protein of human cell lysates, on Western blot membranes (denatured) or in fixed cells; also called PKC-alpha; PKC-A
Experiment: anti-PKC-α immunofluorescence, V5E-transfected IMR-32 cells loaded with PRE (label on PKC-α and V5E); control with endocytosis reagent 113
From the text: Neuroblastoma cells from the IMR-32 cell line were stably transfected with a vector containing the V5E sequence of PKC-α as outlined above in Example 13. The V5E sequence is part of the antigenic amino acid sequence that is used to raise the commercially available anti-PKC-α isoform-specific antibody.
The peptides PRE 1, 2, 3, 4, 5, 6, 7, 8, 9, 10, 11, 12 and 13 (see Table 3) were incorporated into the transfected IMR-32 cells via pinocytic endocytosis (Molecular Probes) according to the supplier's recommendations. Following fixation and permeabilization, PKC-α was detected using an Alexa fluor secondary antibody (as described above in Example 8).

| Relative Fluorescence Intensity | Binder |
| --- | --- |
| 124 | B1 |
| 75 | B3 |
| 79 | B4 |
| 131 | B5 |
| 73 | B6 |
| 83 | B7 |
